Measurements: patent publication US11618906B2, “Hydroxylation techniques” (HYPHA DISCOVERY LTD., priority 2018, dated 2023)
Changes are numbered by the printed parent chain. In names and notes the source's numbering stands.

B1: aluC09M24: cytochrome P450 aluC09 double mutant T291E, A47I; amino acid sequence SEQ ID NO: 84 (protein, listed as Amycolatopsis lurida)
chain: MTDVEETTATLPLARKCPFSPPPEYERLRRESPVSRVGLPSGQTAWILTRLEDIREMLSSPHFSSDRQSPSFPLMVARQIRREDKPFRPSLIAMDPPEHSRARRDVVGEFTVKRMKALQPRIQQIVDEHLDALLAGPKPADLVQALSLPVPSLVICELLGVPYSDHEFFQSCSSRMLSREVTAEERMTAFEQLENYLDELVTKKEANATEDDLLGRQILKQRETGEADHGELVGLAFLLLIAGHETTANMISLGTVTLLENPDQLAKIKADPGKTLAAIEELLRVFTIAEEATSRFATADVEIGGTLIRAGEGVVGLSNAGNHDPDGFENPDTFDIERGARHHVAFGFGVHQCLGQNLARLELQIVFDTLFRRVPGLRIAVPVDELPFKHDSTIYGLHALPVTW
B2: aluC09M30: cytochrome P450 aluC09 double mutant T291E, V315L; amino acid sequence SEQ ID NO: 108 (protein, listed as Amycolatopsis lurida)
chain: B1 chain with I47A, V315L
B3: aluC09M18: cytochrome P450 aluC09 mutant T291Q; amino acid sequence SEQ ID NO: 20 (protein, listed as Amycolatopsis lurida)
chain: B1 chain with I47A, E291Q
B4: aluC09M21: cytochrome P450 aluC09 mutant T291Y; amino acid sequence SEQ ID NO: 32 (protein, listed as Amycolatopsis lurida)
chain: B1 chain with I47A, E291Y

Assays:
Assay type in all cases: biochemical
[1] = Metabolism of ritonavir by P450 aluC09 and mutants; conditions: percent of substrate being converted; 0.125 mg/ml, 27° C., 16-20 hours; [CYP] per enzyme as in Table 8
Procedure: (§1) Lyophilised material of mutants of CYP450aluC09, ferredoxinaluF03 and ferredoxin reductaseSCF15A was made as described in examples 3 and 4 and suspended in water (0.5 mL per vial) and biocatalysis was performed at 27° C. in the following conditions: 50 mM potassium phosphate pH 7.4, 5 mM MgCl2, 0.125 mg/ml substrate compound such as diclofenac (Sigma-Aldrich, UK), Aceclofenac (Tokyo Chemical Industry UK Ltd, UK), Indomethacin (Sigma-Aldrich, UK), Flufenamic acid (Sigma-Aldrich, UK), Napropamide (Sigma-Aldrich, UK), celecoxib (LC Laboratories, USA), valsartan (Tokyo Chemical Industry UK Ltd, UK), ruxolitinib (LC Laboratories, USA), 4-pyrrolidylacetophenone (Sigma-Aldrich, UK), tofacitinib (LC Laboratories, USA), bosentan (CarboSynth Ltd, UK), buparvaquone (MedChemtronica, Sweden), BIRB796 (Stratech Scientific Limited, UK), epothilone B (LC Laboratories, USA), ritonavir (Tokyo Chemical Industry UK Ltd, UK) or tivantinib (MedChemtronica, Sweden), P450AluC09 (concentration as in Table 8), 5 mM G6P, 1 mM NADP, 2 UN/ml G6PDH in a final volume of 100 μL. After 16-20 hours at 200 rpm (5 cm orbital shaker, Kuhner AG, Switzerland), reactions were extracted with an equal volume of acetonitrile, centrifuged to remove precipitated proteins and conversion assessed by UPLC-MS analysis.
(§2) However, of particular note when considering P450 concentration are the results for mutants M12, M20 and M34, as well as the deleterious impact on the range of substrate utility in mutants M39 and M40.

[2] = Metabolism of bosentan by P450 aluC09 and mutants; conditions: percent of substrate being converted; 0.125 mg/ml, 27° C., 16-20 hours; [CYP] per enzyme as in Table 8
Procedure: as §1, §2

[3] = Metabolism of tivantinib by P450 aluC09 and mutants; conditions: percent of substrate being converted; 0.125 mg/ml, 27° C., 16-20 hours; [CYP] per enzyme as in Table 8
Procedure: as §1, §2

[4] = Metabolism of BIRB796 by P450 aluC09 and mutants; conditions: percent of substrate being converted; 0.125 mg/ml, 27° C., 16-20 hours; [CYP] per enzyme as in Table 8
Procedure: as §1, §2

[5] = Metabolism of epothilone B by P450 aluC09 and mutants; conditions: percent of substrate being converted; 0.125 mg/ml, 27° C., 16-20 hours; [CYP] per enzyme as in Table 8
Procedure: as §1, §2

[6] = Metabolism of celecoxib by P450 aluC09 and mutants; conditions: percent of substrate being converted; 0.125 mg/ml, 27° C., 16-20 hours; [CYP] per enzyme as in Table 8
Procedure: as §1, §2

[7] = O-demethylation of indomethacin catalysed by cytochrome P450 aluC09 and mutants; conditions: % by UV peak area at 275 nm; 0.125 mg/ml substrate, 27° C., 16-20 hours
Procedure: as §1
(§3) UPLC data was obtained as follows:
(§4) Column: Acquity UPLC BEH Shield RP18 1.7 μm 2.1 mm i.d. 50 mm length
(§5) Solvents: H2O, B: Acetonitrile, both with 0.1% Formic acid
(§6) Detector: Waters Acquity UPLC PDA (UV-Vis detection) and Waters Acquity UPLC QDA (MS)

[8] = Metabolism of ruxolitinib by P450 aluC09 and mutants; conditions: percent of substrate being converted; 0.125 mg/ml, 27° C., 16-20 hours; [CYP] per enzyme as in Table 8
Procedure: as §1, §2

[9] = Hydroxylation of flufenamic acid catalysed by cytochrome P450 aluC09 and mutants; conditions: for Flufenamic Acid (Substrate) 1.93 mins / Hydroxy-Flufenamic Acid (1) 1.69 mins / Hydroxy-Flufenamic Acid (2) 1.65 mins: % by UV peak area at 275 nm, 0.125 mg/ml substrate, 27° C., 16-20 hours; for Hydroxylated Ratio 1:2: flufenamic acid, ratio of UV peak areas at 275 nm
Procedure: as §1, §3, §4, §5, §6
Flufenamic acid elutes at 1.93 minutes, hydroxy-flufenamic acid 1 elutes at 1.68 minutes and hydroxy-flufenamic acid 2 elutes at 1.65 minutes.

[10] = Metabolism of 4-pyrrolidylacetophenone by P450 aluC09 and mutants; conditions: percent of substrate being converted; 0.125 mg/ml, 27° C., 16-20 hours; [CYP] per enzyme as in Table 8
Procedure: as §1, §2

[11] = Metabolism of tofacitinib by P450 aluC09 and mutants; conditions: percent of substrate being converted; 0.125 mg/ml, 27° C., 16-20 hours; [CYP] per enzyme as in Table 8
Procedure: as §1, §2

[12] = Hydroxylation of aceclofenac catalysed by cytochrome P450 aluC09 and mutants; conditions: for Aceclofenac (Substrate) (1.80 mins) / Dihydroxy-Aceclofenac (1.42 mins) / Hydroxy-Aceclofenac (1) (1.64 min) / Hydroxy-Aceclofenac (2) (1.60 min): % by UV peak area at 275 nm, 0.125 mg/ml substrate, 27° C., 16-20 hours; for Hydroxylated Ratio 2:1: aceclofenac, ratio of UV peak areas at 275 nm
Procedure: as §1, §3, §4, §5, §6
Chromatograms are provided in FIGS. 5a-c; aceclofenac elutes at 1.80 minutes, hydroxy-aceclofenac acid 1 elutes at 1.64 minutes, hydroxy-aceclofenac acid 2 elutes at 1.60 minutes and dihydroxy-aceclofenac elutes at 1.42 minutes.

[13] = Metabolism of valsartan by P450 aluC09 and mutants; conditions: percent of substrate being converted; 0.125 mg/ml, 27° C., 16-20 hours; [CYP] per enzyme as in Table 8
Procedure: as §1, §2

[14] = Hydroxylation of diclofenac catalysed by cytochrome P450 aluC09 and mutants (UPLC-PDA-MS); conditions: for 4′,5-dihydroxy-diclofenac 1.38 mins / 4′-hydroxy-diclofenac (1) 1.62 mins / 5-hydroxy-diclofenac (2) 1.58 mins / Diclofenac (Substrate) 1.81 mins: % by UV peak area at 275 nm, 0.125 mg/ml substrate, 27° C., 16-20 hours; for Hydroxylated Ratio hydroxy 1:hydroxy 2: ratio of UV peak areas at 275nm
Procedure: as §1, §3, §4, §5, §6
Illustrative results for the hydroxylation of diclofenac by CYP450aluC09 and selected T291x mutants are summarised below in Table 3 with representative chromatograms resented in FIG. 3a-c; retention times: diclofenac 1.85-1.88 minutes, 5-hydroxydiclofenac 1.60-1.63 minutes, 4′-hydroxydiclofenac 1.65-1.68 minutes, 4′,5-dihydroxydiclofenac 1.40-1.42 minutes. The chromatographic retention times and mass spectra coincided with those of authentic samples.

[15] = Hydroxylation / de-N-ethylation of napropamide catalysed by cytochrome P450 aluC09 and mutants
Procedure: as §1, §3, §4, §5, §6
Napropamide elutes at 1.76 minutes, unidentified metabolite (−2 Da) elutes at 1.90 minutes, desethyl-napropamide elutes at 1.62 minutes, hydroxy-napropamide 1 elutes at 1.53 minutes and hydroxy-napropamide 2 elutes at 1.52 minutes and the desethyl-hydroxy-napropamide product elutes at 1.41 minutes.

[16] = % by UV peak area at 275 nm, 0.125 mg/ml substrate, 27° C., 16-20 hours

Molecule | % conversions (avg) Ritonavir [1] [%] | % conversions (avg) Bosentan [2] [%] | % conversions (avg) Tivantinib [3] [%] | % conversions (avg) BIRB796 [4] [%] | % conversions (avg) Epothilone B [5] [%] | % conversions (avg) Celecoxib [6] [%] | Indomethacin (1.74 mins) [7] [%] | O-demethyl-Indomethacin (1.52 mins) [7] [%] | % conversions (avg) Ruxolitinib [8] [%] | Flufenamic Acid (Substrate) 1.93 mins [9] [%] | Hydroxy-Flufenamic Acid (1) 1.69 mins [9] [%] | Hydroxy-Flufenamic Acid (2) 1.65 mins [9] [%] | Hydroxylated Ratio 1:2 [9] | % conversions (avg) 4-pyrrolidylacetophenone [10] [%] | % conversions (avg) Tofacitinib [11] [%] | Aceclofenac (Substrate) (1.80 mins) [12] [%] | Dihydroxy-Aceclofenac (1.42 mins) [12] [%] | Hydroxy-Aceclofenac (1) (1.64 min) [12] [%] | Hydroxy-Aceclofenac (2) (1.60 min) [12] [%] | % conversions (avg) Valsartan [13] [%] | other results
B1 | 30.4 | 100 | 6.8 | 18.9 | 52.3 | 3.6 | 94.2 | 5.8 | 37.7 | 89.2 | 7.7 | 3.1 | 2.5 | 7.6 | 0 | 63.4 | 5.0 | 14.3 | 17.4 | 21.2 | Hydroxylated Ratio 2:1 [12]: 1.2; 4′,5-dihydroxy-diclofenac 1.38 mins [14]: 1.8%; 4′-hydroxy-diclofenac (1) 1.62 mins [14]: 34.2%; 5-hydroxy-diclofenac (2) 1.58 mins [14]: 8.0%; Diclofenac (Substrate) 1.81 mins [14]: 57.0%; regioselectivity of hydroxylation (product ratio 4′-hydroxydiclofenac : 5-hydroxydiclofenac) ([14]; diclofenac): over four-fold; Hydroxylated Ratio hydroxy 1:hydroxy 2 ([14]; diclofenac): 4.3
B2 | 20.9 | 80.4 | 2.7 | 18 | 32.2 | 3.9 | 90.1 | 9.9 | 37.5 | 93.8 | 3.7 | 2.4 | 1.5 | 16.6 | 0 | 24.1 | 18.4 | 15.0 | 42.5 | 20 | Hydroxylated Ratio 2:1 [12]: 2.8; 4′,5-dihydroxy-diclofenac 1.38 mins [14]: 3.6%; 4′-hydroxy-diclofenac (1) 1.62 mins [14]: 43.4%; 5-hydroxy-diclofenac (2) 1.58 mins [14]: 13.0%; Diclofenac (Substrate) 1.81 mins [14]: 41.6%; Hydroxylated Ratio hydroxy 1:hydroxy 2 ([14]; diclofenac): 3.3
B3 | 53.3 | 100 | 59.7 | 24.3 | 24.8 | 3.7 | 83.6 | 16.4 | 38.5 | 86.1 | 9.1 | 4.8 | 1.9 | 14.1 | 2.2 | 10.2 | 49.1 | 5.9 | 34.9 | 27.1 | Desethyl Napropamide (1.62 min) [15, 16]: 49.5%; Desethyl-hydroxy-Napropamide (1.41 min) [15, 16]: 4.1%; Hydroxy-Napropamide (1) (1.53 min) [15, 16]: 1.4%; Hydroxy-Napropamide (2), (1.52 min) [15, 16]: 2.5%; M-2Da (unidentified) (1.89 min) [15, 16]: 5.7%; Napropamide (substrate) [15, 16]: 38.3%; Hydroxylated Ratio 2:1 ([15]; napropamide, ratio of UV peak areas): 1.8; Hydroxylated Ratio 2:1 [12]: 5.9; 4′,5-dihydroxy-diclofenac 1.38 mins [14]: 1.9%; 4′-hydroxy-diclofenac (1) 1.62 mins [14]: 45.5%; 5-hydroxy-diclofenac (2) 1.58 mins [14]: 12.3%; Diclofenac (Substrate) 1.81 mins [14]: 41.6%; Hydroxylated Ratio hydroxy 1:hydroxy 2 ([14]; diclofenac): 3.7
B4 | 28.2 | 59 | 29.6 |  | 33.8 | 1 |  |  | 19 |  |  |  |  | 15.8 | 2.7 |  |  |  |  | 19 | 
